From patent publication US10464976B2, “Amyloid β(1-42) oligomers, derivatives thereof and antibodies thereto, methods of preparation thereof and use thereof” (AbbVie Deutschland GmbH & Co. KG, priority 2003, dated 2019)
Read-outs that look alike come from different tables or passages of the source. Where no end group is shown, it is not given here.

Assays:
[1] = rat, in vivo; for Aβ(1-42) detected in brain extract: 10 nmol
[2] = rat
[3] = Detection of Aβ(1-42) oligomers B in rat brain homogenates after icv administration; details: Western blot, after 2 hours
murine cortical neurons = assay: Neurotoxic action on murine cortical neurons (LDH release); type: cell-based; details: 24 h, various final concentrations, n=12
Method: Murine cortical neurons are prepared and cultured as a mixed culture with glia cells following the literature (Choi et al. (1987) J. Neurosci. 7, 357-368). The cortices of embryos on days 14-15 of development are mechanically removed from the meninges and lower brain regions. The cells are separated from one another by incubation in a 0.05% strength trypsin solution at 37° C. for 5-7 minutes and subsequently pipetting said solution several times through a pasteur pipette with reduced opening. After determining the number of cells, 430 000 cells are seeded in 0.5 ml of maintenance medium (minimum essential medium containing 0.8 mM glutamine, 18 mM glucose, 23 mM NaHCO3 and 10% of horse serum) per 2 cm^2 on cell culture material coated with poly-L-ornithine and laminine. Cultivation and later incubations of the cells are carried out in a humidified cell culture incubator at 37° C., 5% CO2. […] The cell culture supernatants are removed after 24 h, the remaining cells are destroyed by incubation in distilled water for 20 minutes and the activity of the enzyme lactate dehydrogenase (LDH) is determined enzymatically in both solutions. For evaluation, the ratio of the LDH activity of the cell culture supernatants to the sum of the LDH activities of supernatant and remaining cells is determined and the average of the quadruple determinations is formed. […]

[4] = Stability of Aβ(1-42) oligomers B in physiological buffers (SDS PAGE); type: physicochemical
Method: The Aβ(1-42) oligomers B obtained according to example 6b are tested for stability in PBS buffer under the following conditions.
5 mg/ml are diluted with PBS in 2× dilution steps down to 0.08 mg/ml. All solutions obtained are incubated at room temperature for 24 hours. This was followed by analyzing the band pattern in an SDS PAGE in comparison with a frozen control preparation.
The Aβ(1-42) oligomers B obtained according to example 6b are diluted to 0.5 mg/ml with PBS buffer and incubated at room temperature or at 37° C. for 24 h or 96 h.
Subsequently, the band pattern was analyzed in an SDS PAGE.

[5] = tested on: rat primary hippocampal neurons; assay: Binding to rat primary hippocampal neurons (immunofluorescence); type: cell-based; details: 200 nM, 37° C., 15 minutes, detection with 6E10 and Cy3 second antibody
Method: The binding of rat Aβ(1-42) oligomers B of example 5b to rat primary hippocampal neurons was studied. The hippocampal neurons were cultured in neurobasal medium with B27 supplement on poly-L-lysine-coated cover slips and used on day 14 of the culture. The oligomers were bound to the cell membrane of the neurons by adding 200 nM (total monomeric Aβ concentration) oligomers to fresh culture medium and incubating at 37° C. for 15 minutes. After removing the Aβ-containing medium, two washing steps with medium were carried out and the cells were then fixed in 3.7% formaldehyde. After further washing of the cells, unspecific binding sites were blocked with 10% normal donkey serum in PBS buffer at room temperature for 90 min. 6E10 (from mouse) was applied as the first antibody in a 1:2000 dilution at room temperature for 2 h. The cells were washed again and incubated with the second antibody (from donkey) which is directed against mouse and which is coupled to the fluorescent dye Cy3, at room temperature for 2 h. After the cells had been washed again, the cover slips containing the neurons were fixed to a slide with embedding medium. The hippocampal neurons with bound Aβ oligomers were depicted in a fluorescent microscope. The control used was a mixture in which the first antibody 6E10 had been omitted.

Row | Substance | average biological half life (brain) [1] | Aβ(1-42) detected in brain extract ([1]; 0.25 h) | Aβ(1-42) detected in brain extract ([1]; 2 h) | biological half life in the plasma [2] [hours] | oligomeric structure after in vivo administration (38/48 kDa bands) [3] | neurotoxicity (neuronal death, LDH) (murine cortical neurons) | band pattern in SDS PAGE ([4]; 0.5 mg/ml in PBS, room temperature or 37° C., 24 h or 96 h) | band pattern in SDS PAGE versus frozen control ([4]; PBS, 5 mg/ml down to 0.08 mg/ml, room temperature, 24 hours) | binding to the cell surface of the neurons [5]
1 | Aβ(1-42) oligomers B: oligomers of human amyloid β(1-42) protein with molecular weights of 38 kDa and 48 kDa in SDS PAGE (examples 5a, 6b) | about 105 min | about 0.4 nmol/g | approx. 0.2 nmol/g | ≥ 8 | oligomeric structure is still retained | distinct toxic action | identical in all samples | identical in all samples | –
2 | rat Aβ(1-42) oligomers B: oligomers of rat amyloid β(1-42) protein with molecular weights of 38 kDa and 48 kDa (example 5b) (DAEFGHDSGFEVRHQKLVFFAEDVGSNKGAIIGLMVGGVVIA; also: oligomers of 38 kDa and 48 kDa) | – | – | – | – | – | – | – | – | bind to the cell surface of the neurons in a dotted manner
